According to article PMC12148503, “Molecular Basis of Interchain Disulfide Bond Formation in BMP-9 and BMP-10” (Journal of molecular biology, 2025):
Residue numbers refer to the chain shown, from its start. Numbers in names are those of the source. Values belong to the molecule of their own block, whether it stands above or below them.

Key:
[1] = biological target: BMP-9 monomer (cysteinylated BMP-9 growth factor) (human) (UniProt Q9UK05)
[2] = biological target: BMP-9 disulfide-linked dimer (wild-type growth factor) (human) (UniProt Q9UK05)
[3] = biological target: BMP-10 monomer (cysteinylated BMP-10 growth factor) (human) (UniProt O95393)
[4] = biological target: BMP-10 disulfide-linked dimer (growth factor) (human) (UniProt O95393)
[5] = biological target: the molecule itself; assay: non-reducing SDS-PAGE with densitometry; IMAC-purified pro-proteins from expi293 conditioned medium, non-reduced against reduced; bands of disulfide-linked dimer and monomer
[6] = biological target: T1, Pro-(X)-BMP-10 S385G, R353K, O95393; assay: SDS-PAGE densitometry; details: chain shown with the change; IMAC column purified Pro-BMP-10
T1 chain: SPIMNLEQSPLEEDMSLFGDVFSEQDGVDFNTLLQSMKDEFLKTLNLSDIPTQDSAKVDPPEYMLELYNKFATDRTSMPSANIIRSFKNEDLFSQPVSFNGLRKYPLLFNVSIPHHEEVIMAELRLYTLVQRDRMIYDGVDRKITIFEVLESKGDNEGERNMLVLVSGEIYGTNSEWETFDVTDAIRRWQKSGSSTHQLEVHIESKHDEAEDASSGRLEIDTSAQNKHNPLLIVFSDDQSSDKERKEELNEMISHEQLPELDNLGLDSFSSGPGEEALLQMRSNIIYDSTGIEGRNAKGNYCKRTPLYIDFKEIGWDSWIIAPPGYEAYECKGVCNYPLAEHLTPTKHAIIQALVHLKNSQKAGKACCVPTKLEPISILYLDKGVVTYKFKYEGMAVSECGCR

[7] = biological target: T2, Pro-(X)-BMP-10 R353K, O95393; assay: SDS-PAGE densitometry; details: chain shown with the change; IMAC column purified Pro-BMP-10
T2 chain: T1 chain with G364S

[8] = biological target: T3, Pro-(X)-BMP-10 S385G, O95393; assay: SDS-PAGE densitometry; details: chain shown with the change; IMAC column purified Pro-BMP-10
T3 chain: T1 chain with K332R

[9] = biological target: the molecule itself; assay: crystal structure; BMP-9 disulfide-linked dimers (wild type and mutants) at neutral pH; 1 M NaCl, glycerol, 0.1 M HEPES pH 7.4; multi-crystal data split into fractions

- EC50 of pSMAD1/5/9 (western blot) in serum-starved HUVECs treated for 45 min with BMP-9 monomer, 0.01-54 ng/mL [1]: 124 pM
Molecule: BMP-9 monomer (cysteinylated BMP-9 growth factor) (from UniProt Q9UK05 320-429) (ligand)

- EC50 of pSMAD1/5/9 (western blot) in serum-starved HUVECs treated for 45 min with BMP-9 disulfide-linked dimer, 0.001-1.62 ng/mL [2]: 3.3 pM
Molecule: BMP-9 disulfide-linked dimer (wild-type growth factor) (from UniProt Q9UK05 320-429) (ligand)

- EC50 of pSMAD1/5/9 (western blot) in serum-starved HUVECs treated for 45 min with BMP-10 monomer, 0.01-54 ng/mL [3]: 164 pM
B1: BMP-10 monomer (cysteinylated BMP-10 growth factor) (ligand)
chain: NAKGNYCKRTPLYIDFKEIGWDSWIIAPPGYEAYECRGVCNYPLAEHLTPTKHAIIQALVHLKNSQKASKACCVPTKLEPISILYLDKGVVTYKFKYEGMAVSECGCR
modifications: cysteinylated (+119 Da; the paper places it on the interchain cysteine)

- EC50 of pSMAD1/5/9 (western blot) in serum-starved HUVECs treated for 45 min with BMP-10 disulfide-linked dimer, 0.001-1.62 ng/mL [4]: 5.9 pM
B2: BMP-10 disulfide-linked dimer (growth factor) (ligand)
chain: B1 chain
modifications: interchain disulfide

B3: Pro-(fr)-BMP-9 (natural protein, human, UniProt Q9UK05 23-429, looked up)
chain: KPLQSWGRGSAGGNAHSPLGVPGGGLPEHTFNLKMFLENVKVDFLRSLNLSGVPSQDKTRVEPPQYMIDLYNRYTSDKSTTPASNIVRSFSMEDAISITATEDFPFQKHILLFNISIPRHEQITRAELRLYVSCQNHVDPSHDLKGSVVIYDVLDGTDAWDSATETKTFLVSQDIQDEGWETLEVSSAVKRWVRSDSTKSKNKLEVTVESHRKGCDTLDISVPPGSRNLPFFVVFSNDHSSGTKETRLELREMISHEQESVLKKLSKDGSTEAGESSHEEDTDGHVAAGSTLARRKRSSGAGSHCQKTSLRVNFEDIGWDSWIIAPKEYEAYECKGGCFFPLADDVTPTKHAIVQTLVHLKFPTKVGKACCVPTKLSPISVLYKDDMGVPTLKYHYEGMSVAECGCR
notes: Human proBMP9 residues 23-429 with the natural furin site; Partially processed by furin: the sample holds unprocessed pro-protein, prodomain and growth factor (12 and 24 kDa); also called Pro-BMP-9 with unmodified furin processing site; wild-type BMP-9; source: expi293 (suspension HEK293), secreted; purified from conditioned medium by IMAC; not shown: 8xHis, N-terminal, kept
- binding result [5]: binds

B4: Pro-(X)-BMP-9 G389S, K357R (natural protein, human, UniProt Q9UK05 23-429, looked up)
chain: B3 chain with R294I, R295E, K296G, K335R, G367S
notes: Human proBMP9 residues 23-429; mutant based on Pro-(X)-BMP-9; also called G389S, K357R BMP-9; BMP-9 double mutant; source: expi293 (suspension HEK293), secreted; purified from conditioned medium by IMAC; not shown: 8xHis, N-terminal, kept
- binding result [5]: binds

B5: Pro-(X)-BMP-9 G389S (natural protein, human, UniProt Q9UK05 23-429, looked up)
chain: B3 chain with R294I, R295E, K296G, G367S
notes: Human proBMP9 residues 23-429; mutant based on Pro-(X)-BMP-9; also called G389S BMP-9; source: expi293 (suspension HEK293), secreted; purified from conditioned medium by IMAC; not shown: 8xHis, N-terminal, kept
- binding result [5]: binds

B6: Pro-(X)-BMP-9 (natural protein, human, UniProt Q9UK05 23-429, looked up)
chain: B3 chain with R294I, R295E, K296G
notes: Human proBMP9 residues 23-429; Behind the rat serum albumin signal peptide, the 8xHis tag and a factor Xa site (IEGR); Secreted unprocessed as a mixture of disulfide-linked dimers and monomers; also called Pro-BMP-9 with the furin site replaced by a factor X site; Pro-BMP-9 wild-type; source: expi293 (suspension HEK293), secreted; purified from conditioned medium by IMAC; not shown: 8xHis, …
- binding result [5]: binds

B7: Pro-(X)-BMP-9 K357R (natural protein, human, UniProt Q9UK05 23-429, looked up)
chain: B3 chain with R294I, R295E, K296G, K335R
notes: Human proBMP9 residues 23-429; mutant based on Pro-(X)-BMP-9; also called K357R BMP-9; source: expi293 (suspension HEK293), secreted; purified from conditioned medium by IMAC; not shown: 8xHis, N-terminal, kept
- binding result [5]: binds

- other: disulfide-linked dimer over monomer ratio [6]: 0.41
B8: Pro-(X)-BMP-10, O95393 S385G; R353K (protein)
chain: T1 chain

- other: disulfide-linked dimer over monomer ratio [7]: 0.9
B9: Pro-(X)-BMP-10, O95393 R353K (protein)
chain: T1 chain with G364S

B10: Pro-(fr)-BMP-10 (natural protein, human, UniProt O95393 22-424, looked up)
chain: T1 chain with G291A, I292R, E293I, G294R, K332R, G364S
notes: Human proBMP10 residues 22-424 with the natural furin site; Partially processed by furin: the sample holds unprocessed pro-protein, prodomain and growth factor (12 and 24 kDa); also called Pro-BMP-10 with unmodified furin processing site; wild-type BMP-10; source: expi293 (suspension HEK293), secreted; purified from conditioned medium by IMAC; not shown: 8xHis, N-terminal, kept
- binding result [5]: binds

- other: disulfide-linked dimer over monomer ratio [8]: 0.42
B11: Pro-(X)-BMP-10, O95393 S385G (protein)
chain: T1 chain with K332R

B12: Pro-(fr)-Act-A (natural protein, human, UniProt P08476 27-426, looked up)
chain: EGHSAAPDCPSCALAALPKDVPNSQPEMVEAVKKHILNMLHLKKRPDVTQPVPKAALLNAIRKLHVGKVGENGYVEIEDDIGRRAEMNELMEQTSEIITFAESGTARKTLHFEISKEGSDLSVVERAEVWLFLKVPKANRTRTKVTIRLFQQQKHPQGSLDTGEEAEEVGLKGERSELLLSEKVVDARKSTWHVFPVSSSIQRLLDQGKSSLDVRIACEQCQESGASLVLLGKKKKKEEEGEGKKKGGGEGGAGADEEKEQSHRPFLMLQARQSEDHPHRRRRRGLECDGKVNICCKKQFFVSFKDIGWNDWIIAPSGYHANYCEGECPSHIAGTSGSSLSFHSTVINHYRMRGHSPFANLKSCCVPTKLRPMSMLYYDDGQNIIKKDIQNMIVEECGCS
notes: Human proINHBA residues 27-426; The results call it N-terminally histidine-tagged and purified by that tag; the methods say 'with no tag or processing site'; Furin processing incomplete; also called Pro-Activin-A; Pro-Act-A; source: expi293 (suspension HEK293), secreted; purified from conditioned medium by the histidine tag (IMAC); not shown: His tag, N-terminal, kept
- binding result [5]: binds

B13: BMP-9 G389S, K357R disulfide-linked dimer (ligand, human, UniProt Q9UK05 320-429, looked up)
chain: SSGAGSHCQKTSLRVNFEDIGWDSWIIAPKEYEAYECRGGCFFPLADDVTPTKHAIVQTLVHLKFPTKVSKACCVPTKLSPISVLYKDDMGVPTLKYHYEGMSVAECGCR
modifications: interchain disulfide Cys-392 to Cys-392'
notes: Human BMP-9 growth factor released by factor Xa from the G389S, K357R mutant of Pro-(X)-BMP-9 (proBMP9 residues 23-429, A321S, RRKR replaced by IEGR); also called BMP-9 double-mutant; BMP-9 G389S K357R Dimer; source: expi293 (suspension HEK293), secreted as Pro-(X)-BMP-9 mutant; IMAC, factor Xa digestion, C18 reverse phase
- binding result [9]: binds

B14: BMP-9 G389S disulfide-linked dimer (ligand, human, UniProt Q9UK05 320-429, looked up)
chain: B13 chain with R38K
modifications: interchain disulfide Cys-392 to Cys-392'
notes: Human BMP-9 growth factor released by factor Xa from the G389S mutant of Pro-(X)-BMP-9 (proBMP9 residues 23-429, A321S, RRKR replaced by IEGR); also called BMP-9 G389S Dimer; source: expi293 (suspension HEK293), secreted as Pro-(X)-BMP-9 mutant; IMAC, factor Xa digestion, C18 reverse phase
- binding result [9]: binds

B15: Pro-(fr)-TGF-β2 (natural protein, human, UniProt P61812-1 19-414, looked up)
chain: LSLSTSSTLDMDQFMRKRIEAIRGQILSKLKLTSPPEDYPEPEEVPPEVISIYNSTRDLLQEKASRRAAACERERSDEEYYAKEVYKIDMPPFFPSENAIPPTFYRPYFRIVRFDVSAMEKNASNLVKAEFRVFRLQNPKARVAEQRIELYQILKSKDLTSPTQRYIDSKVVKTRAEGEWLSFDVTDAVHEWLHHKDRNLGFKISLHCPCCTFVPSNNYIIPNKSEELEARFAGIDGTSTYTSGDQKTIKSTRKKNSGKTPHLLLMLLPSYRLESQQTNRRKKRALDAAYCFRNVQDNCCLRPLYIDFKRDLGWKWIHEPKGYNANFCAGACPYLWSSDTQHSRVLSLYNTINPEASASPCCVSQDLEPLTILYYIGKTPKIEQLSNMIVKSCKCS
notes: Human proTGF-β2 residues 19-414; Behind the mouse Ig signal peptide and the 8xHis tag, no processing site after the tag; Furin processing incomplete; also called Pro-TGF-β2; source: expi293 (suspension HEK293), secreted; purified from conditioned medium by the histidine tag (IMAC); not shown: 8xHis, N-terminal, kept
- binding result [5]: binds
